Measured values published in PMC10716122.
Each block holds one substance with its values, some of them ahead of it.

Legend:
[1] = target: LINE-1 (L1) ORF1p (human) (UniProt Q9UN81); experiment: not stated; formation of the ORF1p trimer with or without cGAS, Supplementary Fig. 2o; method not given
[2] = target: TRIM41 (UniProt Q8WV44); experiment: co-immunoprecipitation; conditions: reference: wild-type cGAS

stoichiometry N [1]: 3
Substance: LINE-1 (L1) ORF1p (from UniProt Q9UN81 1-338) (natural protein)

binding against the reference ([2]; sites S305): weaker
Substance: cGAS (from UniProt Q8N884) S305A

binding against the reference ([2]; sites S120): weaker
Substance: cGAS (from UniProt Q8N884) S120A
